Laboratory results published in patent US20240116999A1, “CONFORMATIONALLY CONSTRAINED GLUCAGON ANALOGUES AND THEIR USE IN GLUCAGON-SINGLE CHAIN INSULIN FUSION PROTEINS” (THE TRUSTEES OF INDIANA UNIVERSITY, priority 2021, published 2024).
Bridge positions count the residues as written; N and C are the ends. Square brackets hold non-standard residues; d marks the D form. Orn = NCCC[C@H](N)C(=O)O

B1: HSQGTFTSDYSOKLDSEOAQDFVQWLMNTEEKFVNQHLCGSHLVEALYLVCGEOGFFYTPETEEGPOOGILEQCCQSICSLEQLENYCN (protein)
chain: HSQGTFTSDYS[Orn]KLDSE[Orn]AQDFVQWLMNTEEKFVNQHLCGSHLVEALYLVCGE[Orn]GFFYTPETEEGP[Orn][Orn]GILEQCCQSICSLEQLENYCN
modifications: lactam 13-17; ends not checked
notes: fusion protein made by trypsin-mediated ligation
B2: HSQGTFTSDYSOKLDSEOAQDFVQWLMNTEEKFVNQHLCGSHLVEALYLVCGEOGFFYTPETEEGPOOGIVEQCCQSICSLEQLENYCN (protein)
chain: HSQGTFTSDYSXKLDSEXAQDFVQWLMNTEEKFVNQHLCGSHLVEALYLVCGEXGFFYTPETEEGPXXGIVEQCCQSICSLEQLENYCN
modifications: K13-E17 lactam; ornithine residues; glucagon/insulin fusion peptide analog; (12)..(12) Xaa at position 12 is ornithine; (18)..(18) Xaa at position 18 is ornithine; (54)..(54) Xaa at position 54 is ornithine; (67)..(67) Xaa at position 67 is ornithine; (68)..(68) Xaa at position 68 is ornithine
notes: as for B1

Legend:
STZ (diabetic) rats = test: In vivo assay in STZ (diabetic) rats, subcutaneous injection; parameters: species or system rat; conditions: for effect on blood glucose levels: FIG. 17, STZ rats, 12 nmol/kg per rat
From the text: FIG. 17 presents an in vivo assay done in STZ rats.
FIG. 18 presents another in vivo assay done in STZ rats. The four fusion proteins used in FIG. 17 were subcutaneously injected at doses of 23.8 nmol/kg per rat. […] In this study both fusion proteins carrying an active SCI analogue had similar activities.

[1] = Thioflavin T (ThT) fibrillation assay; type: physicochemical; conditions: FIG. 15; month-long assay, 100 μM, pH 7.4, 37° C.
Experimental: Fibrillation Assays. We employed an automated plate-based fluorescent device to monitor the time course of peptide fibrillation using a Thioflavin T (ThT) assay. This assay is based on the THT fluorescence emission at 480 nm upon binding to mature fibrils when excited at 440 nm. The assay was performed by preparing stock solutions of the fusion protein and the individual peptides in either NaCl 0.9% (pH 2.5) or PBS (pH 7.4). Our experience has identified 100-μM final concentration as optimal fibrillation conditions for glucagon analogues. Stock solutions were diluted with NaCl 0.9% or 1X PBS buffer, pH adjusted (with 1N HCl or 1N NaOH) mixed with Thioflavin-T (THT) at a final concentration of 16 μM, centrifuged, and 250 μl of the sample were placed on a 96-well plate with 4-10 technical replicates. Measurements were done every 15 minutes and the sample agitated at 1096 cpm at 37° C. on a Synergy H1 microplate reader (BioTek, Winooski, VT). The lag time, defined as the time-point at which fibrillation starts its exponential phase, was considered as the point at which fluorescence was 3 times the background signal.

Molecule | effect on blood glucose levels (STZ (diabetic) rats) | effect on blood-glucose concentrations (STZ (diabetic) rats; FIG. 18, STZ rats, 23.8 nmol/kg per rat) | activity at 23.8 nmol/kg relative to the 12-nmol/kg rat doses (STZ (diabetic) rats; FIG. 18 vs FIG. 17, STZ rats) | formation of amyloid-like fibrils [1]
B1 | slight rise in blood glucose levels | didn't cause an increase in blood-glucose concentrations |  | 
B2 | higher activity than the corresponding analogue containing an active SCI and inactive glucagon |  | stayed in a similar range | did not form amyloid-like fibrils within the duration of the experiment
